Sequences and labels used below:
T1: human myostatin (mature, recombinant; R&D Systems) (human, UniProt O14793 267-375)
T1 sequence: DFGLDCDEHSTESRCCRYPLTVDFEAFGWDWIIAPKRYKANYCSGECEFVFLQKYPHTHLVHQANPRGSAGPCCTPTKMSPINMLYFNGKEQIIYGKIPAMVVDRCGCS

T2: human Activin A (R&D Systems) (human, UniProt P08476 311-426)
T2 sequence (looked up): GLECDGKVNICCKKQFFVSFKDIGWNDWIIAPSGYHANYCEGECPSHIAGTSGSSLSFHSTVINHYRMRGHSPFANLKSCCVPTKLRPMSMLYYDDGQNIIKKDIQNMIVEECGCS

B1: ActRIIB-Fc (produced in house) (Fc fusion, UniProt Q13705 19-134, looked up, not shown: a dimerising Fc or GST)
chain: SGRGEAETRECIYYNANWELERTNQSGLERCEGEQDKRLHCYASWRNSSGTIELVKKGCWLDDFNCYDRQECVATEENPQVYFCCCEGNFCNERFTHLPEAGGPEVTYEPPPTAPT
B2: ActRIIB-monomer (produced in house) (receptor, UniProt Q13705 19-134, looked up)
chain: B1 chain
B3: ALK5-Fc (R&D Systems) (Fc fusion, UniProt P36897 34-125, looked up, not shown: a dimerising Fc or GST)
chain: LQCFCHLCTKDNFTCVTDGLCFVSVTETTDKVIHNSMCIAEIDLIPRDRPFVCAPSSKTGSVTTTYCCNQDHCNKIELPTTVKSSPGLGPVE
B4: ATI-1339 [40K 4-branch PEG] (designed binder)
chain: MGVSDVPRDLEVVAATPTSLLISWTLPHAGRAHYYRITYGETGGNSPVQEFTVPGRGVTATISGLKPGVDYTITVYAVTVTTTKVIHYKPISINYRTEGSGCHHHHHH
modifications: 40K 4-branch PEG on the Cys of the EGSGC tail
notes: cysteine mutant of 2987_H07
B5: ATI-1338 [40K 2-branch PEG] (designed binder)
chain: B4 chain
modifications: 40K 2-branch PEG on the Cys of the EGSGC tail
notes: cysteine mutant of 2987_H07
B6: ATI-1276 [40K 2-branch PEG] (designed binder)
chain: MGVSDVPRDLEVVAATPTSLLISWYLPYPAHMNYYRITYGETGGNSPVQEFTVPGRGLTATISGLKPGVDYTITVYAVTLTKSQILHHRPISINYRTEGSGCHHHHHH
modifications: 40K 2-branch PEG on the Cys of the EGSGC tail
notes: cysteine mutant of 2524_D09
B7: ATI-1278 [40K 2-branch PEG] (designed binder)
chain: B6 chain with Y25S, P29A, A30G, M32L, L58V, I85L, L86I, H88Y, R89M
modifications: 40K 2-branch PEG on the Cys of the EGSGC tail
notes: cysteine mutant of 2525_D05
B8: 3116_A06 R56A (designed binder)
chain: MGVSDVPRDLEVVAATPTSLLISWSLPHQGKANYYRITYGETGGNSPVQEFTVPGAGVTATISGLKPGVDYTITVYAVTVTDTGYLKYKPISINYRTEIDKPSQHHHHHH
B9: ALK4-Fc (R&D Systems) (Fc fusion, UniProt P36896 24-126, looked up, not shown: a dimerising Fc or GST)
chain: SGPRGVQALLCACTSCLQANYTCETDGACMVSIFNLDGMEHHVRTCIPKVELVPAGKPFYCLSSEDLRNTHCCYTDYCNRIDLRVPSGHLKEPEHPSMWGPVE
notes: also called activin receptor-like kinase 4 Fc
B10: human BMP-11 (GDF-11; R&D Systems) (ligand, UniProt O95390 299-407, looked up)
chain: NLGLDCDEHSSESRCCRYPLTVDFEAFGWDWIIAPKRYKANYCSGQCEYMFMQKYPHTHLVQQANPRGSAGPCCTPTKMSPINMLYFNDKQQIIYGKIPGMVVDRCGCS

Changes are numbered by the printed parent chain. In names and notes the source's numbering stands. Where two headings read alike, the source gives them in different places.

In assay [1] the target is B10. Nature of the assay: SPR Format A; 100 nM BMP11 alone. As for the experimental part:
(§1) Competition SPR: Competitive binding assays to evaluate the ability of anti-myostatin Adnectins to compete with Type I and Type II receptors for binding to myostatin or BMP11, as a surrogate for myostatin, were also conducted using SPR on a Biacore T100 instrument, in two different experimental formats. In “SPR Format A”, sensor chip surfaces were prepared by immobilizing 100 ug/ml protein A (Pierce) in 10 mM acetate pH 4.5 to 4500 RU on a CM5 sensor chip (Biacore/GE Healthcare) using standard ethyl(dimethylaminopropyl) carbodiimide (EDC)/N-hydroxysuccinimide (NHS) chemistry, with ethanolamine blocking. […] The running buffer for immobilization and competition experiments was 10 mM HEPES, 150 mM NaCl, 3 mM EDTA, and 0.05% v/v Surfactant P20, pH 7.4, and surfaces were regenerated between cycles using two injections of 10 mM glycine pH 1.5 for 30 s at 30 μl/min.

In assay [2] the target is B10. Description: SPR Format A; 100 nM BMP11 with 200 nM ATI-1523 as competitor. The method, then:
as §1

In assay [3] the target is B10. Nature of the assay: SPR Format B; immobilized BMP11, no pre-bound PRD-1474. The method, then:
(§2) Adnectin competition using “SPR format B”: The mechanism of action for anti-myostatin Adnectins was further evaluated in “SPR Format B”, where myostatin or BMP11 (10 μg/ml in 10 mM acetate pH 4.5) were directly immobilized on a CM5 sensor chip surface using EDC/NHS coupling chemistry to a density of 985 RU (myostatin) or 530 RU (BMP11). […] The running buffer for immobilization and competition experiments was 10 mM HEPES, 150 mM NaCl, 3 mM EDTA, and 0.05% v/v Surfactant P20, pH 7.4, and surfaces were regenerated between cycles using 4 injections of 50 mM NaOH for 15 s at 30 μl/min.

In assay [4] the target is B10. Nature of the assay: SPR Format B; immobilized BMP11 with pre-bound PRD-1474 as competitor. The method, then:
as §2

The target in assay [5] is B10. Nature of the assay: cell-based or functional assay.
Assay [6] concerns the target T1, human myostatin (mature, recombinant; …). Nature of the assay: cell-based or functional assay.
For assay [7], the target named is T2, human Activin A (R&D Systems). Description: cell-based or functional assay.
Assay [8] concerns the target B10. Description: SPR format B, 37C. As for the experimental part:
(§3) A concentration range of anti-myostatin Adnectins was applied in HBSP running buffer. Regeneration of the chip surface between cycles was accomplished with 60 seconds of 10-50 mM NaOH. Kinetic traces of reference-subtracted sensorgrams were fit to a 1:1 binding model using Biaevaluation software. For Fc-formatted Adnectins, interaction kinetics are driven by avidity of bivalent Fc and dimeric myostatin even at low immobilization density. The data shown in Table 12 indicate that some of the Adnectins run in this SPR format bind myostatin and BMP-11 and also activin with similar affinities.

Assay [9] concerns the target T1, human myostatin (mature, recombinant; …). Description: SPR format B, 37C. The method, then: as §3
Assay [10] addresses T2, human Activin A (R&D Systems). Nature of the assay: SPR format B, 37C. As for the experimental part: as §3
Assay [11] deals with T1, human myostatin (mature, recombinant; …). Nature of the assay: competitive HTRF (1889E01/myostatin/ActRIIb-Fc sandwich). From the text:
An HTRF assay was used to measure the binding affinities of anti-myostatin Adnectins to myostatin. […] The Eu-W 1024 labeled Streptavidin is used to bind biotinylated 1889E01. […] In the presence of a competitive Adnectin, the HTRF signal decreases.
(Time-resolved FRET reads energy transfer from a long-lived donor to a nearby acceptor.)

Assay [12] has the same target. Description: KinExA, solution phase, global analysis. The method, then:
The affinities of PRD-1177 and ATI-1338 were also measured using the same assay format. Triplicate titrations of PRD-1177 were performed with myostatin at a monomer concentration of 1 nM (n=2) and 0.8 nM (n=1). Triplicate titrations of ATI-1338 were performed with myostatin at a monomer concentration of 5 nM (n=1), 1.6 nM (n=1), and 1.4 nM (n=1).

Assay [13] deals with B10. Nature of the assay: SPR format A, 25C. Put shortly: (§4)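 Fc-fusion captured on an anti-human Fc antibody CM5 surface; anti-myostatin Adnectin injected over a concentration range in HBSP buffer. Regeneration used two 30 s pulses of 3M MgCl₂; reference-subtracted sensorgrams fitted to a 1:1 binding model.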
In assay [14] the target is T1, human myostatin (mature, recombinant; …). Description: SPR format A, 25C. Put shortly:
as §4

The target in assay [15] is T2, human Activin A (R&D Systems). Description: cell-based or functional assay. This is another data set of the same source.
The target in assay [16] is T1, human myostatin (mature, recombinant; …). Nature of the assay: cell-based or functional assay. This is another data set of the same source.
Assay [17] shares this target. Description: competitive HTRF, alanine scan.
Assay [18] has the same target. Description: HTRF competition binding assay, alanine mutant.
A further assay deals with T3, ActRIIb-Fc (R&D Systems) (human, UniProt Q13705 19-134, Alexa Fluor 647 label in the HTRF assay).
T3 construct: also called rhActRIIb-Fc; Human Activin RIIB Fc Chimera
Nature of the assay: SPR format A set-up. From the text:
Anti-human Fc antibody (Biacore/GE) was immobilized on a Biacore CM5 chip via NHS/EDC coupling according to the manufacturer's instructions. […] A concentration range of anti-myostatin Adnectin was applied across all flow cells in HBSP running buffer. Regeneration of the chip surface between cycles was accomplished with two 30 second pulses of 3M MgCl₂. Kinetic traces of reference-subtracted sensorgrams were fit to a 1:1 binding model using Biaevaluation software.

Consider B1, for which the “SPR binding response (normalized)” value is 100% in assay [1] and 189% in assay [2].
Turning to B2, the “SPR binding response (normalized)” value in [3] came to 100%; in assay [4] it was 92%.
Turning to B3, the “SPR binding response (normalized)” value in assay [1] was determined as 100%; in [3], 100%; in [4], 65%; in assay [2], 31%.
Take B4: the “ARE-luciferase IC50” value in assay [5] was 6 nM; in assay [6], 0.28 nM; in assay [7], > 1000 nM. For the same molecule, the values for the dissociation constant Kd in [8], in assay [9] and in [10] were 6.9 nM, 3.6 nM and 6.5 nM, respectively. The half-maximal inhibitory concentration (IC50) in [11] is 0.28 nM.
Take B5: the “ARE-luciferase IC50” value was 5.8 nM in assay [5], 0.28 nM in assay [6] and > 1000 nM in assay [7]. Also, the Kd was 3.8 nM in [8], 1.9 nM in assay [9], 4.6 nM in assay [10] and 0.85 nM in assay [12]. The IC50 in [11] came out at 0.24 nM.
With B6, the “ARE-luciferase IC50” value in assay [5] amounted to 0.15 nM; in assay [6] it was 0.08 nM; in assay [15] it was 110 nM. For the same molecule, the results for the equilibrium dissociation constant (Kd) in assay [13] and in assay [14] were 8.8 nM and 4.18 nM, respectively. Besides, the IC50 in [11] was determined as 0.28 nM.
With B7, the entries for the “ARE-luciferase IC50” value in assay [5], in assay [6] and in assay [15] were 1.1 nM, 0.27 nM and > 2000 nM, respectively. The dissociation constant Kd in assay [13] was determined as 3.3 nM; in [14] it was 6.04 nM. Besides, the IC50 in assay [11] worked out at 0.54 nM.
With B8, the “Myostatin ARE-luc IC50” value in assay [16] was > 100 nM. For the same molecule, the IC50 in [17] is 55 nM; in assay [18], > 100 nM.
On to B9, for which the “SPR binding response (normalized)” value in assay [1] worked out at 100%; in [3], 100%; in assay [4] it was 30%; in assay [2], 2%.
Take B10: in the assay with ActRIIb-Fc (R&D Systems), the binding result was “binds”.

As usually defined, the Kd is the concentration at which binding is half-saturated. Broadly, the IC50 is the concentration at which inhibition is half-maximal.

(Values after patent publication US20170088602A1 (Bristol-Myers Squibb, published 2017).)
